Consider 1 substance from article doi:10.1101/2022.06.09.495492.

For this assay, the target named is α-actin, endogenous (T. vaginalis) (T. vaginalis (endogenous in TH17 trophozoites)). Nature of the assay: co-sedimentation.

“TvFACPα (F-actin capping protein subunit α homolog), endogenous (natural protein)” showed a percent co-sedimented with F-actin (F-actin fraction) of 25%.
